Reference: patent US20180244762A1

How the values were obtained:
[1] = molecular target: recombinant human PDGF-BB (human) (UniProt P01127); experiment: cell-based or functional assay
[2] = molecular target: recombinant human PDGF-BB (human) (UniProt P01127); experiment: competitive ELISA: binder preincubated with 0.2 nM rhPDGF-BB, competitor immobilized PDGFR/Fc
[3] = molecular target: recombinant human PDGF-BB (human) (UniProt P01127); experiment: optical biosensor (Proteon XPR36 / Biacore 2000), binder amine-coupled, rhPDGF-BB injected, 25 C

Chain of recombinant human PDGF-BB (human) (P01127 82-190): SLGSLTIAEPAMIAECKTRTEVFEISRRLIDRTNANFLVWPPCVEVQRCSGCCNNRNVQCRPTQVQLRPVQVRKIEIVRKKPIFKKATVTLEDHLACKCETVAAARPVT

Inhibition of PDGF induced proliferation of HPVPs, IC50 [1]: 5.4 nM
IC50 [2]: 0.066 nM
Kd [3]: 0.107 nM
Substance: reference anti-PDGF-BB antibody (R&D Systems, Catalog # AB-220-NA)
